The experiment addresses T1, human VEGF165 (human, UniProt P15692 27-191).
T1 construct: mature; The canonical UniProt entry is a longer isoform, so the VEGF165 isoform must be chosen; also called recombinant VEGF165 protein; VEGF-A
Put plainly: SPR, in vitro, recombinant VEGF165, 37 °C. As for the experimental part: The brolucizumab: VEGF binding parameter values (Table 8) were defined on the basis of a surface plasmon resonance (SPR) in vitro binding experiment with drug and recombinant VEGF165 protein at 37° C. These in vitro measured brolucizumab: VEGF binding parameter values were then scaled similar to ranibizumab to obtain in vivo estimates. […] The scaling is performed such that the koff is kept constant and the kon is divided by the scaling factor.

A word on the Kd: it is the concentration at which binding is half-saturated. The term koff denotes the rate constant with which the complex falls apart. The term kon denotes the second-order rate constant of association.

T1 sequence (P15692 other isoform, or with tags, fused parts or gaps): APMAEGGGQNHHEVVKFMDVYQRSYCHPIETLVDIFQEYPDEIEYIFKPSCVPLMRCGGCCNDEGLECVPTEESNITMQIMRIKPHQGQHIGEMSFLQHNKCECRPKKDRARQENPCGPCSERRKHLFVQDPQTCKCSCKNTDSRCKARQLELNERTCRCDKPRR

B1: brolucizumab (scFv)
scFv: MEIVMTQSPSTLSASVGDRVIITCQASEIIHSWLAWYQQKPGKAPKLLIYLASTLASGVPSRFSGSGSGAEFTLTISSLQPDDFATYYCQNVYLASTNGANFGQGTKLTVLGGGGGSGGGGSGGGGSGGGGSEVQLVESGGGLVQPGGSLRLSCTASGFSLTDYYYMTWVRQAPGKGLEWVGFIDPDDDPYYATWAKGRFTISRDNSKNTLYLQMNSLRAEDTAVYYCAGGDHNSGWGLDIWGQGTLVTVSS
notes: Humanized scFv of about 26 kDa, VL-linker-VH; also called Beovu; drug
Take B1: the Kd worked out at 0.101 nM, the koff is 0.00025 s⁻¹ and the kon was determined as 2.5e+06 M⁻¹ s⁻¹.
